Legend:
[1] = tested on: CC(=O)N[C@H]1[C@@H](OP(=O)(O)OP(=O)(O)OC[C@H]2O[C@@H](n3ccc(=O)[nH]c3=O)[C@H](O)[C@@H]2O)O[C@H](CO)[C@@H](O)[C@@H]1O; experiment: purified protein; details: pH 7.5, 25 °C
[2] = tested on: CC(=O)N[C@@H]1[C@@H](OP(=O)(O)OP(=O)(O)OC[C@H]2O[C@@H](n3ccc(=O)[nH]c3=O)[C@H](O)[C@@H]2O)O[C@H](CO)[C@@H](O)[C@@H]1O; experiment: purified protein; details: pH 7.5, 25 °C, same buffer, 2.0 mM NAD+, 2.0 mM DTT, UDP-ManNAc generated in situ from UDP-GlcNAc with excess C2-epimerase (10 μM)
[3] = target: T1, CMP-Neu5Ac synthase (HS6.5) (Campylobacter jejuni, UniProt P0DY07); experiment: anion exchange chromatography, NMR and MS of CMP-Neu5Ac product; format: biochemical; details: pH 7.5; Neu5Ac co-substrate, MgCl2, pyrophosphatase
T1 construct: full-length synthetic codon-optimised gene, N-terminal His6 tag kept, pET-28a(+), E. coli BL21(DE3)
T1 sequence (P0DY07 whole entry): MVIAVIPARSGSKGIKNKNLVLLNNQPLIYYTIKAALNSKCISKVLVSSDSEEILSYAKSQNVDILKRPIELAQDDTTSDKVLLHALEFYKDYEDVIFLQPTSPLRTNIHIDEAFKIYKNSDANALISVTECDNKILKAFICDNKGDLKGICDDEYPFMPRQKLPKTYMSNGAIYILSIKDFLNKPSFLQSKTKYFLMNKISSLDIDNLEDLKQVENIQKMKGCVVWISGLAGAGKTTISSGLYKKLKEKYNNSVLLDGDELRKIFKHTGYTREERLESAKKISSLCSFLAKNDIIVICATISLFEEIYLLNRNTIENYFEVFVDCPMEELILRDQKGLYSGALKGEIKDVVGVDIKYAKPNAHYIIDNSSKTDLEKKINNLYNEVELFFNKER

[4] = 50 mM HEPES, 250 mM KCl, 5% glycerol, excess C6-dehydrogenase (10 μM), 2.0 mM NAD+, 2.0 mM DTT
[5] = same buffer, 10 mM MgCl2, 2.0 mM PEP, 300 μM NADH

nonhydrolyzing UDP-GlcNAc C2-epimerase (HS11.17) (Campylobacter jejuni)
Km [1, 4]: 1370 ± 50 µM | kcat [1, 4]: 5.7 ± 0.2 s⁻¹ | kcat/Km [1, 4]: 4200 ± 200 M⁻¹ s⁻¹

UDP-ManNAc C6-dehydrogenase (HS11.16) (Campylobacter jejuni)
Km [2]: 22 ± 1 µM | kcat [2]: 0.2 ± 0.01 s⁻¹ | kcat/Km [2]: 8700 ± 400 M⁻¹ s⁻¹

hydrolyzing UDP-GlcNAc C2-epimerase (HS6.10) (Campylobacter jejuni subsp. jejuni 81116)
Km [1, 5]: 160 ± 10 µM | kcat [1, 5]: 3.1 ± 0.1 s⁻¹ | kcat/Km [1, 5]: 19900 ± 1000 M⁻¹ s⁻¹

Nc1ccn([C@@H]2O[C@H](COP(=O)(O)OP(=O)(O)OP(=O)(O)O)[C@@H](O)[C@H]2O)c(=O)n1 [CTP]
anion exchange chromatography, NMR and MS of CMP-Neu5Ac product [3]: CMP-Neu5Ac synthase using CTP as the nucleotide donor

Reference: paper PMC10919079, “Biosynthesis of UDP-α-N-Acetyl-D-mannosaminuronic Acid and CMP-β-N-Acetyl-D-neuraminic Acid for the Capsular Polysaccharides of Campylobacter jejuni” (Biochemistry, 2024)
